These results are taken from US20120087858A1 (AbbVie / Abbott, published 2012).

Assay [1] concerns the target T1, Recombinant Human TNF-α/TNFSF1A (human, UniProt P01375 77-233).
T1 construct: Bought reagent; The same protein name (huTNFα) is used in the L929 neutralization assay; also called huTNFα
The experiment in a line: Biacore SPR. The protocol:
(§1) The BIACORE assay (Biacore, Inc, Piscataway, N.J.) determines the affinity of antibodies or DVD-Ig with kinetic measurements of on-rate and off-rate constants. Binding of antibodies or DVD-Ig to a target antigen (for example, a purified recombinant target antigen) is determined by surface plasmon resonance-based measurements with a Biacore® 1000 or 3000 instrument (Biacore® AB, Uppsala, Sweden) using running HBS-EP (10 mM HEPES [pH 7.4], 150 mM NaCl, 3 mM EDTA, and 0.005% surfactant P20) at 25° C. All chemicals are obtained from Biacore® AB (Uppsala, Sweden) or otherwise from a different source as described in the text. For example, approximately 5000 RU of goat anti-mouse IgG, (Fcγ), fragment specific polyclonal antibody (Pierce Biotechnology Inc, Rockford, Ill.) diluted in 10 mM sodium acetate (pH 4.5) is directly immobilized across a CMS research grade biosensor chip using a standard amine coupling kit according to manufacturer's instructions and procedures at 25 μg/ml. Unreacted moieties on the biosensor surface are blocked with ethanolamine. Modified carboxymethyl dextran surface in flowcell 2 and 4 is used as a reaction surface. Unmodified carboxymethyl dextran without goat anti-mouse IgG in flow cell 1 and 3 is used as the reference surface. For kinetic analysis, rate equations derived from the 1:1 Langmuir binding model are fitted simultaneously to association and dissociation phases of all eight injections (using global fit analysis) with the use of Biaevaluation 4.0.1 software. Purified antibodies or DVD-Ig are diluted in HEPES-buffered saline for capture across goat anti-mouse IgG specific reaction surfaces. Antibodies or DVD-Ig to be captured as a ligand (25 μg/ml) are injected over reaction matrices at a flow rate of 5 μl/min. The association and dissociation rate constants, kₒₙ (M⁻¹s⁻) and koff(s⁻¹) are determined under a continuous flow rate of 25 μl/min. Rate constants are derived by making kinetic binding measurements at different antigen concentrations ranging from 10-200 nM. The equilibrium dissociation constant (M) of the reaction between antibodies or DVD-Igs and the target antigen is then calculated from the kinetic rate constants by the following formula: KD=koff/kₒₙ. Binding is recorded as a function of time and kinetic rate constants are calculated.
(SPR reads the build-up and loss of mass on a sensor chip optically.)

Assay [2] concerns the target T2, Recombinant Human β-NGF (human, UniProt P01138 122-241).
T2 construct: Bought reagent; also called huNGF
The experiment in a line: Biacore SPR. The protocol: as §1

In assay [3] the target is T1, Recombinant Human TNF-α/TNFSF1A. Nature of the assay: cell-based or functional assay.
The target in assay [4] is T2, Recombinant Human β-NGF. Nature of the assay: cell-based or functional assay.
The target in assay [5] is T3, Recombinant Human SOST (human, UniProt Q9BQB4 24-213).
T3 construct: Biacore reagent from R&D Systems; the Wnt-1/luciferase assay used Human Sclerostin (Abbott PR-1261069); also called Sclerostin; Human Sclerostin
T3 sequence (looked up): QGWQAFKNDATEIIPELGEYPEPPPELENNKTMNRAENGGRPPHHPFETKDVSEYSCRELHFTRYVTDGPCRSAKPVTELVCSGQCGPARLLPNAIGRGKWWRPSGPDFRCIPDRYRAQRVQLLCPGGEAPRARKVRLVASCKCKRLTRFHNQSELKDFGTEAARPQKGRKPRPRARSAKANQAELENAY
Nature of the assay: Biacore SPR. The protocol: as §1

T2 sequence (P01138 122-241 limits assumed): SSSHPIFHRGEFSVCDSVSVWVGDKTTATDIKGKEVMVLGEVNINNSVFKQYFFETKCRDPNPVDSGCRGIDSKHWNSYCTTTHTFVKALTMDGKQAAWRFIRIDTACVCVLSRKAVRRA
T1 sequence (P01375 77-233 limits assumed): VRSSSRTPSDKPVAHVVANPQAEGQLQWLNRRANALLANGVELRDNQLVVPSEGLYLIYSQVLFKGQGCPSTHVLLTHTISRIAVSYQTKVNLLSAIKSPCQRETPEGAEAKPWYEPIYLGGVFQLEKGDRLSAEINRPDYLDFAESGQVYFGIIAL

B1: DVD1502 (bispecific antibody, human IgG1, kappa)
heavy: not shown
light: DIQMTQSPSSLSASVGDRVTITCRASQSISNNLNWYQQKPGKAPKLLIYYTSRFHSGVPSRFSGSGSGTDFTFTISSLQPEDIATYYCQQEHTLPYTFGQGTKLEIKRTVAAPDIVMTQSHKFMSTTVGDRVSITCKASQAVSSAVAWYQQKPGQSPKLLIYWASTRHTGVPDRFTGSGSVTDFTLTIHNLQAEDLALYYCQQHYSTPFTFGSGTKLEIKRTVAAPSVFIFPPSDEQLKSGTASVVCLLNNFYPREAKVQWKVDNALQSGNSQESVTEQDSKDSTYSLSSTLTLSKADYEKHKVYACEVTHQGLSSPVTKSFNRGEC
notes: DVD-Ig; linker set 3; also called DVD1502H; DVD1502L
By Kd is commonly meant the concentration at which binding is half-saturated. The term koff denotes a measure of how fast the partners let go of each other. The term kon denotes the rate constant with which the complex forms. As for B1, in assay [1], the Kd is 0.3 nM, the koff is 5.5e-05 s⁻¹ and the kon worked out at 180000 M⁻¹ s⁻¹. In addition, in assay [2], the dissociation constant (Kd) was below 0.0004 nM, the koff is below 1e-06 s⁻¹ and the on-rate constant (kon) came to 2.5e+06 M⁻¹ s⁻¹. For the same molecule, the “TNFα Neutralization Assay EC50 (L929 cells)” value (“TNFα Neutralization Assay EC50” below) in assay [3] came to 0.46 nM. The “NGF Inhibition Assay EC50 (TF-1 cell proliferation)” value (“NGF Inhibition Assay EC50” below) in assay [4] was found to be 0.028 nM.

B2: DVD1454 (bispecific antibody, human IgG1, kappa)
heavy: not shown
light: DVQMIQSPSSLSASLGDIVTMTCQASQGTSINLNWFQQKPGKAPKLLIYGSSNLEDGVPSRFSGSRYGTDFTLTISSLEDEDLATYFCLQHSYLPYTFGGGTKLEIKRTVAAPSVFIFPPDIVMTQSHKFMSTTVGDRVSITCKASQAVSSAVAWYQQKPGQSPKLLIYWASTRHTGVPDRFTGSGSVTDFTLTIHNLQAEDLALYYCQQHYSTPFTFGSGTKLEIKRTVAAPSVFIFPPSDEQLKSGTASVVCLLNNFYPREAKVQWKVDNALQSGNSQESVTEQDSKDSTYSLSSTLTLSKADYEKHKVYACEVTHQGLSSPVTKSFNRGEC
notes: DVD-Ig; linker set 2; also called DVD1454H; DVD1454L
For B2, in assay [1], the Kd came out at 0.21 nM, the koff amounted to 4.9e-05 s⁻¹ and the kon is 230000 M⁻¹ s⁻¹. Also, in assay [5], the Kd stood at 0.084 nM, the koff is 0.00086 s⁻¹ and the kon was determined as 1e+07 M⁻¹ s⁻¹. For the same molecule, in assay [3], the “TNFα Neutralization Assay EC50” value was determined as 0.951 nM.

B3: DVD1478 (bispecific antibody, human IgG1, kappa)
heavy: not shown
light: DIQMTQSPSSLSASVGDRVTITCRASQSISNNLNWYQQKPGKAPKLLIYYTSRFHSGVPSRFSGSGSGTDFTFTISSLQPEDIATYYCQQEHTLPYTFGQGTKLEIKRTVAAPSVFIFPPDIQMTQSPSSLSASVGDRVTITCRASQGIRIDLGWYQQKPGKAPKRLIYAASTLQSGVPSRFSGSGSGTEFIFTISSLQPEDFASYYCLQHKSYPLTFGGGTKVEIKRTVAAPSVFIFPPSDEQLKSGTASVVCLLNNFYPREAKVQWKVDNALQSGNSQESVTEQDSKDSTYSLSSTLTLSKADYEKHKVYACEVTHQGLSSPVTKSFNRGEC
notes: DVD-Ig; linker set 2; also called DVD1478H; DVD1478L
For B3, in assay [1], the Kd is 0.1 nM, the koff was found to be 1.5e-05 s⁻¹ and the kon turned out to be 150000 M⁻¹ s⁻¹. For the same molecule, in assay [2], the Kd is 0.0025 nM, the koff amounted to 6e-06 s⁻¹ and the kon is 2.4e+06 M⁻¹ s⁻¹. Besides, the “TNFα Neutralization Assay EC50” value in assay [3] worked out at 0.329 nM. Also, in assay [4], the “NGF Inhibition Assay EC50” value worked out at 0.019 nM.

B4: DVD1520 (bispecific antibody, human IgG1, kappa)
heavy: not shown
light: DIQMTQSPSSLSASVGDRVTITCRASQSISNNLNWYQQKPGKAPKLLIYYTSRFHSGVPSRFSGSGSGTDFTFTISSLQPEDIATYYCQQEHTLPYTFGQGTKLEIKRTVAAPDIQMTQSPSSLSASVGDRVTITCRASQGIRIDLGWYQQKPGKAPKRLIYAASTLQSGVPSRFSGSGSGTEFIFTISSLQPEDFASYYCLQHKSYPLTFGGGTKVEIKRTVAAPSVFIFPPSDEQLKSGTASVVCLLNNFYPREAKVQWKVDNALQSGNSQESVTEQDSKDSTYSLSSTLTLSKADYEKHKVYACEVTHQGLSSPVTKSFNRGEC
notes: DVD-Ig; linker set 3; also called DVD1520H; DVD1520L
As to B4, in assay [1], the Kd amounted to 0.0038 nM, the koff came out at 4.4e-06 s⁻¹ and the on-rate (kon) turned out to be 1.1e+06 M⁻¹ s⁻¹. In assay [2], the Kd was determined as 0.0034 nM, the koff turned out to be 9.3e-06 s⁻¹ and the association rate constant (kon) was 2.7e+06 M⁻¹ s⁻¹. Moreover, in assay [3], the “TNFα Neutralization Assay EC50” value was 7.21 nM. Besides, the “NGF Inhibition Assay EC50” value in assay [4] was 0.025 nM.

B5: DVD1460 (bispecific antibody, human IgG1, kappa)
heavy: not shown
light: DIQMTQSPSSLSASVGDRVTITCRASQSISNNLNWYQQKPGKAPKLLIYYTSRFHSGVPSRFSGSGSGTDFTFTISSLQPEDIATYYCQQEHTLPYTFGQGTKLEIKRTVAAPSVFIFPPDIVMTQSHKFMSTTVGDRVSITCKASQAVSSAVAWYQQKPGQSPKLLIYWASTRHTGVPDRFTGSGSVTDFTLTIHNLQAEDLALYYCQQHYSTPFTFGSGTKLEIKRTVAAPSVFIFPPSDEQLKSGTASVVCLLNNFYPREAKVQWKVDNALQSGNSQESVTEQDSKDSTYSLSSTLTLSKADYEKHKVYACEVTHQGLSSPVTKSFNRGEC
notes: DVD-Ig; linker set 2; also called DVD1460H; DVD1460L
B5: in assay [1], the Kd came out at 0.26 nM, the koff was found to be 3.6e-05 s⁻¹ and the kon is 140000 M⁻¹ s⁻¹. In addition, in assay [2], the Kd is 0.00085 nM, the koff was determined as 2e-06 s⁻¹ and the kon is 2.3e+06 M⁻¹ s⁻¹. Besides, the “NGF Inhibition Assay EC50” value in assay [4] came to 1.7 nM.

B6: DVD1525 (bispecific antibody, human IgG1, kappa)
heavy: not shown
light: EIVMTQSPATLSVSPGERATLSCRASQSVSSNLAWYQQKPGQAPRLLIHGASIRATGLPARFSGSGSGTEFTLTISSLQSEDFAVYYCQQYNYWWTFGQGTKVEIKRTVAAPDVQMIQSPSSLSASLGDIVTMTCQASQGTSINLNWFQQKPGKAPKLLIYGSSNLEDGVPSRFSGSRYGTDFTLTISSLEDEDLATYFCLQHSYLPYTFGGGTKLEIKRTVAAPSVFIFPPSDEQLKSGTASVVCLLNNFYPREAKVQWKVDNALQSGNSQESVTEQDSKDSTYSLSSTLTLSKADYEKHKVYACEVTHQGLSSPVTKSFNRGEC
notes: DVD-Ig; linker set 3; also called DVD1525H; DVD1525L
B6: in assay [1], the Kd was determined as 0.015 nM, the koff is 3e-05 s⁻¹ and the kon came out at 2e+06 M⁻¹ s⁻¹. For the same molecule, in assay [5], the Kd was determined as 9.8 nM, the koff was 0.00089 s⁻¹ and the on-rate (kon) is 91000 M⁻¹ s⁻¹. In assay [3], the “TNFα Neutralization Assay EC50” value is 0.0029 nM.

B7: AB020 (antibody, V domains shown)
VH: QVQLQESGPGLVKPSETLSLTCTVSGFSLIGYDLNWIRQPPGKGLEWIGIIWGDGTTDYNSAVKSRVTISKDTSKNQFSLKLSSVTAADTAVYYCARGGYWYATSYYFDYWGQGTLVTVSS
VL: DIQMTQSPSSLSASVGDRVTITCRASQSISNNLNWYQQKPGKAPKLLIYYTSRFHSGVPSRFSGSGSGTDFTFTISSLQPEDIATYYCQQEHTLPYTFGQGTKLEIKR
notes: Parent antibody; also called NGF parent antibody
Take B7: in assay [2], the Kd came to 0.00673 nM, the koff is 4.08e-06 s⁻¹ and the kon was found to be 606000 M⁻¹ s⁻¹. Moreover, in assay [4], the “NGF Inhibition Assay EC50” value is 0.003 nM.
